# System: Escherichia coli TOP10
# Assay: shrunken log2 fold change of peptide-encoding DNA abundance (4.5 h post-induction vs induction); higher = less antimicrobial activity (less host growth inhibition)
# Settings: time post-induction: 4.5 h; library: site-saturation at positions 5, 18, 19, 20
# 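Also: peptides expressed intracellularly from a pBAD plasmid library in pooled LB shake-flask culture, induced with 0.3% L-arabinose, DNA abundance read by NGS, three biological replicates, DESeq2 with apeglm shrinkage.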
row,Sequence,shrunken log2 fold change
1,RRIRQRPPRLPRPRPRPGQYPRP,-0.156
2,RRIRQRPPRLPRPRPRPDQHPRP,0.00878
3,RRIRMRPPRLPRPRPRPPCTPRP,0.738
4,RRIRTRPPRLPRPRPRPMLTPRP,0.21
5,RRIRARPPRLPRPRPRPYYKPRP,-0.675
6,RRIRLRPPRLPRPRPRPGPFPRP,0.137
7,RRIRHRPPRLPRPRPRPIRKPRP,-0.583
8,RRIRWRPPRLPRPRPRPIFQPRP,-0.103
9,RRIRHRPPRLPRPRPRPFLEPRP,-0.0353
10,RRIRYRPPRLPRPRPRPWFTPRP,-0.165
11,RRIRNRPPRLPRPRPRPIHWPRP,0.0944
12,RRIRFRPPRLPRPRPRPMYWPRP,0.146
13,RRIRRRPPRLPRPRPRPIDYPRP,-0.029
14,RRIRLRPPRLPRPRPRPKSWPRP,0.176
15,RRIRARPPRLPRPRPRPTANPRP,0.401
16,RRIRCRPPRLPRPRPRPTMWPRP,0.259
17,RRIRMRPPRLPRPRPRPTTAPRP,1.19
18,RRIRIRPPRLPRPRPRPLATPRP,-0.0671
19,RRIRHRPPRLPRPRPRPFQEPRP,-0.00966
20,RRIRLRPPRLPRPRPRPDFSPRP,0.177
21,RRIRARPPRLPRPRPRPVHWPRP,0.579
22,RRIRYRPPRLPRPRPRPVAHPRP,-0.419
23,RRIRPRPPRLPRPRPRPFWVPRP,0.0111
24,RRIRCRPPRLPRPRPRPKPEPRP,0.377
25,RRIRVRPPRLPRPRPRPNQFPRP,-0.349

row,Sequence,shrunken log2 fold change
1,RRIRDRPPRLPRPRPRPMNHPRP,-0.513
2,RRIRIRPPRLPRPRPRPCWGPRP,0.162
3,RRIRVRPPRLPRPRPRPDNLPRP,0.0725
4,RRIRERPPRLPRPRPRPRIYPRP,-0.194
5,RRIRARPPRLPRPRPRPNNIPRP,-0.537
6,RRIRDRPPRLPRPRPRPRQVPRP,0.262
7,RRIRARPPRLPRPRPRPIAGPRP,0.163
8,RRIRGRPPRLPRPRPRPRHMPRP,0.57
9,RRIRARPPRLPRPRPRPLNSPRP,0.0404
10,RRIRKRPPRLPRPRPRPKKGPRP,0.368
11,RRIRIRPPRLPRPRPRPCHGPRP,-0.545
12,RRIRCRPPRLPRPRPRPWFEPRP,-0.45
13,RRIRIRPPRLPRPRPRPGQWPRP,-0.124
14,RRIRSRPPRLPRPRPRPDCIPRP,-0.163
15,RRIRMRPPRLPRPRPRPYMNPRP,-0.737
16,RRIRARPPRLPRPRPRPPGDPRP,0.868
17,RRIRPRPPRLPRPRPRPHYDPRP,-0.459
18,RRIRPRPPRLPRPRPRPWHRPRP,-0.156
19,RRIRTRPPRLPRPRPRPYWAPRP,-0.0649
20,RRIRTRPPRLPRPRPRPDGYPRP,-0.0637
21,RRIRMRPPRLPRPRPRPTCDPRP,0.79
22,RRIRWRPPRLPRPRPRPHSQPRP,0.0984
23,RRIRPRPPRLPRPRPRPCFVPRP,-0.18
24,RRIRPRPPRLPRPRPRPTKQPRP,0.169
25,RRIRLRPPRLPRPRPRPIQPPRP,0.0112

row,Sequence,shrunken log2 fold change
1,RRIRYRPPRLPRPRPRPPVDPRP,0.155
2,RRIRDRPPRLPRPRPRPYVLPRP,-0.347
3,RRIRRRPPRLPRPRPRPRTIPRP,0.134
4,RRIRVRPPRLPRPRPRPCLEPRP,0.0452
5,RRIRRRPPRLPRPRPRPDLMPRP,2.63
6,RRIRSRPPRLPRPRPRPHLKPRP,-0.137
7,RRIRQRPPRLPRPRPRPMICPRP,0.013
8,RRIRNRPPRLPRPRPRPIWGPRP,-0.0075
9,RRIRERPPRLPRPRPRPNILPRP,-0.991
10,RRIRLRPPRLPRPRPRPAWLPRP,0.229
11,RRIRKRPPRLPRPRPRPPFKPRP,0.498
12,RRIRSRPPRLPRPRPRPDEGPRP,0.0432
13,RRIRVRPPRLPRPRPRPVKWPRP,-0.0595
14,RRIRMRPPRLPRPRPRPIDAPRP,0.616
15,RRIRERPPRLPRPRPRPYGLPRP,-0.0303
16,RRIRWRPPRLPRPRPRPTKDPRP,0.214
17,RRIRHRPPRLPRPRPRPKYDPRP,-0.246
18,RRIRIRPPRLPRPRPRPCNQPRP,-0.297
19,RRIRNRPPRLPRPRPRPKPRPRP,0.83
20,RRIRFRPPRLPRPRPRPFQQPRP,-0.268
21,RRIRIRPPRLPRPRPRPQMTPRP,-0.733
22,RRIRHRPPRLPRPRPRPDLSPRP,-0.000678
23,RRIRWRPPRLPRPRPRPRWQPRP,-0.0189
24,RRIRQRPPRLPRPRPRPHDPPRP,0.142
25,RRIRLRPPRLPRPRPRPIKGPRP,-0.106

row,Sequence,shrunken log2 fold change
1,RRIRRRPPRLPRPRPRPYQHPRP,-0.983
2,RRIRARPPRLPRPRPRPVALPRP,0.411
3,RRIRYRPPRLPRPRPRPNSFPRP,-0.0457
4,RRIRRRPPRLPRPRPRPGEWPRP,0.701
5,RRIRGRPPRLPRPRPRPCWLPRP,-0.0298
6,RRIRYRPPRLPRPRPRPRAYPRP,-0.0333
7,RRIRKRPPRLPRPRPRPTWDPRP,0.289
8,RRIRGRPPRLPRPRPRPKEMPRP,0.5
9,RRIRMRPPRLPRPRPRPNVQPRP,-0.166
10,RRIRIRPPRLPRPRPRPHRHPRP,-0.364
11,RRIRTRPPRLPRPRPRPCIDPRP,-0.519
12,RRIRPRPPRLPRPRPRPEKHPRP,0.418
13,RRIRYRPPRLPRPRPRPLQVPRP,-0.0974
14,RRIRQRPPRLPRPRPRPQYQPRP,-1.46
15,RRIRKRPPRLPRPRPRPRNCPRP,0.0613
16,RRIRWRPPRLPRPRPRPDHPPRP,-0.0785
17,RRIRCRPPRLPRPRPRPCPYPRP,-0.215
18,RRIRGRPPRLPRPRPRPWLSPRP,-0.0504
19,RRIRARPPRLPRPRPRPEWSPRP,0.949
20,RRIRERPPRLPRPRPRPRMHPRP,0.0795
21,RRIRQRPPRLPRPRPRPSKTPRP,-0.0854
22,RRIRGRPPRLPRPRPRPFCFPRP,0.778
23,RRIRGRPPRLPRPRPRPGCPPRP,0.806
24,RRIRPRPPRLPRPRPRPMGSPRP,-0.0938
25,RRIRSRPPRLPRPRPRPMSYPRP,0.0443

row,Sequence,shrunken log2 fold change
1,RRIRHRPPRLPRPRPRPRISPRP,0.0117
2,RRIRFRPPRLPRPRPRPPGHPRP,0.337
3,RRIRYRPPRLPRPRPRPDRPPRP,-0.215
4,RRIRARPPRLPRPRPRPQLVPRP,0.308
5,RRIRSRPPRLPRPRPRPHRGPRP,-0.128
6,RRIRARPPRLPRPRPRPQDNPRP,-0.0337
7,RRIRFRPPRLPRPRPRPRMWPRP,0.127
8,RRIRRRPPRLPRPRPRPAMFPRP,0.372
9,RRIRERPPRLPRPRPRPNGLPRP,-0.0319
10,RRIRYRPPRLPRPRPRPVHWPRP,0.0233
11,RRIRSRPPRLPRPRPRPWIKPRP,-0.34
12,RRIRIRPPRLPRPRPRPMKPPRP,-0.00581
13,RRIRARPPRLPRPRPRPDMSPRP,0.0274
14,RRIRSRPPRLPRPRPRPHFCPRP,-0.29
15,RRIRRRPPRLPRPRPRPDDCPRP,0.279
16,RRIRERPPRLPRPRPRPKTDPRP,-0.497
17,RRIRPRPPRLPRPRPRPGLHPRP,0.09
18,RRIRDRPPRLPRPRPRPGLRPRP,0.277
19,RRIRGRPPRLPRPRPRPAYMPRP,-0.353
20,RRIRWRPPRLPRPRPRPTPQPRP,1.63
21,RRIRDRPPRLPRPRPRPWNFPRP,0.0173
22,RRIRIRPPRLPRPRPRPQLDPRP,-0.138
23,RRIRERPPRLPRPRPRPFIVPRP,-0.218
24,RRIRARPPRLPRPRPRPHLTPRP,-0.145
25,RRIRHRPPRLPRPRPRPTCFPRP,0.0654

row,Sequence,shrunken log2 fold change
1,RRIRLRPPRLPRPRPRPIITPRP,-0.613
2,RRIRMRPPRLPRPRPRPIRIPRP,-0.0023
3,RRIRMRPPRLPRPRPRPTDKPRP,0.851
4,RRIRERPPRLPRPRPRPRFHPRP,-0.447
5,RRIRHRPPRLPRPRPRPTQFPRP,-0.631
6,RRIRKRPPRLPRPRPRPFVYPRP,-0.014
7,RRIRTRPPRLPRPRPRPKNIPRP,-0.627
8,RRIRNRPPRLPRPRPRPFPQPRP,-0.186
9,RRIRVRPPRLPRPRPRPIWGPRP,0.0376
10,RRIRYRPPRLPRPRPRPRPHPRP,-0.0677
11,RRIRKRPPRLPRPRPRPYIWPRP,-0.126
12,RRIRDRPPRLPRPRPRPPPWPRP,0.788
13,RRIRCRPPRLPRPRPRPNVGPRP,0.0143
14,RRIRYRPPRLPRPRPRPWDLPRP,0.0112
15,RRIRTRPPRLPRPRPRPHVCPRP,-0.04
16,RRIRGRPPRLPRPRPRPQCRPRP,0.0701
17,RRIRHRPPRLPRPRPRPLMEPRP,-0.348
18,RRIRHRPPRLPRPRPRPVCQPRP,-0.147
19,RRIRNRPPRLPRPRPRPGLVPRP,0.171
20,RRIRFRPPRLPRPRPRPIQGPRP,0.0616
21,RRIRYRPPRLPRPRPRPKAHPRP,-0.376
22,RRIRNRPPRLPRPRPRPHIGPRP,-0.0161
23,RRIRGRPPRLPRPRPRPEDWPRP,1.45
24,RRIRMRPPRLPRPRPRPFLNPRP,-0.247
25,RRIRKRPPRLPRPRPRPYLEPRP,0.0252
